Results: patent US20200024322A1 (Eli Lilly, published 2020)
Numbered stars: 1 amine (or outer) side, 2 acyl side, 3 side chain; on linkers, the order of the positions; unused ones are H or OH. Square brackets hold non-standard residues; d marks the D form. Side chains are listed from the residue outwards. Ends that are not written are not given here. * marks the point of attachment. C20 diacid = O=C(O)CCCCCCCCCCCCCCCCCCC(=O)*; γGlu = O=C(O)[C@H](CCC(=O)[*:2])N[*:1]; Desaminotyrosyl = O=C(CCc1ccc(O)cc1)*; αMeF = C[C@](N)(Cc1ccccc1)C(=O)O; αMeL = CC(C)C[C@](C)(N)C(=O)O; cTA = not defined here; AEEA = NCCOCCOCC(=O)O; Aib = CC(C)(N)C(=O)O

Assays:
human GIP receptor = biological target: T1, human GIP receptor (human, UniProt P48546 22-466); experiment: SPA, [125I]-GIP displacement, hGIPR membranes
T1 construct: whole, on cells; Used as crude membranes of stably transfected CHO cells; also called hGIPR
T1 sequence (looked up): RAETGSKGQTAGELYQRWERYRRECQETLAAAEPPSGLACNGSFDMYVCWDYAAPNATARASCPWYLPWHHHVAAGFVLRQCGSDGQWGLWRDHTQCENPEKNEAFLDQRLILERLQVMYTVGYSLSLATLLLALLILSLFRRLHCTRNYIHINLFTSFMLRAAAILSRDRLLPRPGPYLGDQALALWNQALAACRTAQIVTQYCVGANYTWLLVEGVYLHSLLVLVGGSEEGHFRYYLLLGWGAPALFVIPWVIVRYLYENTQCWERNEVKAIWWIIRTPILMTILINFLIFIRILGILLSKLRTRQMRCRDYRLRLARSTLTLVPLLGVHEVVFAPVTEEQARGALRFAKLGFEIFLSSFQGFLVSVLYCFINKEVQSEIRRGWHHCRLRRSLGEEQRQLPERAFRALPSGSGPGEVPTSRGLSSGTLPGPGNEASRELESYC

human glucagon receptor = biological target: T2, human glucagon receptor (human, UniProt P47871 26-477); experiment: SPA, [125I]-Gcg displacement, hGcgR membranes
T2 construct: whole, on cells; Used as crude membranes of stably transfected HEK293 cells; also called hGcgR; hGLcgR
T2 sequence (P47871 26-477): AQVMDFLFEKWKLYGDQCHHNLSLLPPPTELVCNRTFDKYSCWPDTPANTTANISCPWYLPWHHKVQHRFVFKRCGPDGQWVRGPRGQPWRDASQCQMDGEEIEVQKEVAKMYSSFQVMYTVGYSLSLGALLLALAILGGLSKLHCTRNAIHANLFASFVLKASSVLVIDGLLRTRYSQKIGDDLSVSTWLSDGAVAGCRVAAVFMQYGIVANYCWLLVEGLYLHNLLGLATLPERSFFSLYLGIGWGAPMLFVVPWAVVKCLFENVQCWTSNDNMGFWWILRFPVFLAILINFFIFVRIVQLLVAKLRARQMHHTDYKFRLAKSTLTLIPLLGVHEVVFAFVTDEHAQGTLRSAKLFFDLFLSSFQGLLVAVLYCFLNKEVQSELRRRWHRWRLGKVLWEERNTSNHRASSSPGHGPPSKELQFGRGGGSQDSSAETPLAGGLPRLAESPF

human GLP-1 receptor = biological target: T3, human GLP-1 receptor (human, UniProt P43220 24-463); experiment: SPA, [125I]-GLP-1 displacement, hGLP-1R membranes
T3 construct: whole, on cells; Used as crude membranes of stably transfected HEK293 cells; also called hGLP1R; hGLP-1R

B1: Example 117 (peptide)
peptide: Y[Aib]EGT[αMeF]TSDYSI[Aib]LDEK([AEEA-AEEA-γGlu-C20 diacid])AQ[Aib]AFIEYLIEGGPSSGAPPPS-NH2
modifications: N-terminus assumed
SMILES: CC[C@H](C)[C@H](NC(=O)[C@H](CC(C)C)NC(=O)[C@H](Cc1ccc(O)cc1)NC(=O)[C@H](CCC(=O)O)NC(=O)[C@@H](NC(=O)[C@H](Cc1ccccc1)NC(=O)[C@H](C)NC(=O)C(C)(C)NC(=O)[C@H](CCC(N)=O)NC(=O)[C@H](C)NC(=O)[C@H](CCCCNC(=O)COCCOCCNC(=O)COCCOCCNC(=O)CC[C@H](NC(=O)CCCCCCCCCCCCCCCCCCC(=O)O)C(=O)O)NC(=O)[C@H](CCC(=O)O)NC(=O)[C@H](CC(=O)O)NC(=O)[C@H](CC(C)C)NC(=O)C(C)(C)NC(=O)[C@@H](NC(=O)[C@H](CO)NC(=O)[C@H](Cc1ccc(O)cc1)NC(=O)[C@H](CC(=O)O)NC(=O)[C@H](CO)NC(=O)[C@@H](NC(=O)[C@](C)(Cc1ccccc1)NC(=O)[C@@H](NC(=O)CNC(=O)[C@H](CCC(=O)O)NC(=O)C(C)(C)NC(=O)[C@@H](N)Cc1ccc(O)cc1)[C@@H](C)O)[C@@H](C)O)[C@@H](C)CC)[C@@H](C)CC)C(=O)N[C@@H](CCC(=O)O)C(=O)NCC(=O)NCC(=O)N1CCC[C@H]1C(=O)N[C@@H](CO)C(=O)N[C@@H](CO)C(=O)NCC(=O)N[C@@H](C)C(=O)N1CCC[C@H]1C(=O)N1CCC[C@H]1C(=O)N1CCC[C@H]1C(=O)N[C@@H](CO)C(N)=O
- Ki (human GIP receptor): 0.0497 nM
- Ki (human glucagon receptor): 192 nM
- Ki (human GLP-1 receptor): 6.96 nM

B2: Example 137 (peptide)
peptide: YXEGTXTSDYSIXLDKKAQXXFIEYLIEGGPSSGAPPPS
modifications: Aib2; αMeF6; αMeL13; K17((2-[2-(2-Amino-ethoxy)-ethoxy]-acetyl)2-(γ-Glu)-CO-(CH2)18-CO2H); Aib20; Aad21; C-terminal NH2
- Ki (human GIP receptor): 0.0373 nM
- Ki (human glucagon receptor): 98.1 nM
- Ki (human GLP-1 receptor): 1.24 nM

B3: Example 144 (peptide)
peptide: YXEGTXTSDYSIXLDKKAQHXFIEYLIEGGPSSGAPPPS
modifications: Aib2; αMeF6; αMeL13; K17((2-[2-(2-Amino-ethoxy)-ethoxy]-acetyl)2-(γ-Glu)-CO-(CH2)18-CO2H); Aib21; C-terminal NH2
- Ki (human GIP receptor): 0.0341 nM
- Ki (human glucagon receptor): 77 nM
- Ki (human GLP-1 receptor): 1.78 nM

B4: Example 147 (peptide)
peptide: YXEGTXTSDYSIXLDEKAQXEFIXYLIEGGPSSGAPPPS
modifications: Aib2; αMeF(2F)6; αMeL13; K17((2-[2-(2-Amino-ethoxy)-ethoxy]-acetyl)2-(γ-Glu)-CO-(CH2)18-CO2H); Aib20; Aad24; C-terminal NH2
- Ki (human GIP receptor): 0.0981 nM
- Ki (human glucagon receptor): 64.9 nM
- Ki (human GLP-1 receptor): 4.47 nM

B5: Example 152 (peptide)
peptide: YXEGTXTSDYSIXLDEKAQXEFIXYLIEGGPSSGAPPPS
modifications: Aib2; αMeF(2F)6; αMeL13; K17((2-[2-(2-Amino-ethoxy)-ethoxy]-acetyl)2-(γ-Glu)-CO-(CH2)18-CO2H); Aib20; Aib24; C-terminal NH2
- Ki (human GIP receptor): 0.117 nM
- Ki (human glucagon receptor): 93.4 nM
- Ki (human GLP-1 receptor): 48 nM

B6: Example 143 (peptide)
peptide: YXEGTXTSDYSIXLDKKAQXXFIEYLIEGGPSSGAPPPS
modifications: Aib2; αMeF6; αMeL13; K17((2-[2-(2-Amino-ethoxy)-ethoxy]-acetyl)2-(γ-Glu)-CO-(CH2)18-CO2H); Aib20; Aib21; C-terminal NH2
- Ki (human GIP receptor): 0.0304 nM
- Ki (human glucagon receptor): 65.5 nM
- Ki (human GLP-1 receptor): 1.15 nM

B7: Example 121 (peptide)
peptide: Y[Aib]EGT[αMeF]TSDYSI[αMeL]LDEK([AEEA-AEEA-γGlu-C20 diacid])AQQAFIEYLIEGGPSSGAPPPS-NH2
modifications: N-terminus assumed
SMILES: CC[C@H](C)[C@H](NC(=O)[C@H](CC(C)C)NC(=O)[C@H](Cc1ccc(O)cc1)NC(=O)[C@H](CCC(=O)O)NC(=O)[C@@H](NC(=O)[C@H](Cc1ccccc1)NC(=O)[C@H](C)NC(=O)[C@H](CCC(N)=O)NC(=O)[C@H](CCC(N)=O)NC(=O)[C@H](C)NC(=O)[C@H](CCCCNC(=O)COCCOCCNC(=O)COCCOCCNC(=O)CC[C@H](NC(=O)CCCCCCCCCCCCCCCCCCC(=O)O)C(=O)O)NC(=O)[C@H](CCC(=O)O)NC(=O)[C@H](CC(=O)O)NC(=O)[C@H](CC(C)C)NC(=O)[C@](C)(CC(C)C)NC(=O)[C@@H](NC(=O)[C@H](CO)NC(=O)[C@H](Cc1ccc(O)cc1)NC(=O)[C@H](CC(=O)O)NC(=O)[C@H](CO)NC(=O)[C@@H](NC(=O)[C@](C)(Cc1ccccc1)NC(=O)[C@@H](NC(=O)CNC(=O)[C@H](CCC(=O)O)NC(=O)C(C)(C)NC(=O)[C@@H](N)Cc1ccc(O)cc1)[C@@H](C)O)[C@@H](C)O)[C@@H](C)CC)[C@@H](C)CC)C(=O)N[C@@H](CCC(=O)O)C(=O)NCC(=O)NCC(=O)N1CCC[C@H]1C(=O)N[C@@H](CO)C(=O)N[C@@H](CO)C(=O)NCC(=O)N[C@@H](C)C(=O)N1CCC[C@H]1C(=O)N1CCC[C@H]1C(=O)N1CCC[C@H]1C(=O)N[C@@H](CO)C(N)=O
- Ki (human GIP receptor): 0.177 nM
- Ki (human glucagon receptor): 51.9 nM
- Ki (human GLP-1 receptor): 3.16 nM

B8: Example 123 (peptide)
peptide: YXEGTXTSDYSIXLDKKAQXEFIEYLIEGGPSSG
modifications: Aib2; αMeF6; αMeL13; K17((2-[2-(2-Amino-ethoxy)-ethoxy]-acetyl)2-(γ-Glu)-CO-(CH2)18-CO2H); Aib20; C-terminal NH2
- Ki (human GIP receptor): 0.0469 nM
- Ki (human glucagon receptor): 80.1 nM
- Ki (human GLP-1 receptor): 1.31 nM

B9: Example 124 (peptide)
peptide: YXEGTXTSDYSIXLDEKAQXEFIEYLIEGGPSSG
modifications: Aib2; αMeF6; αMeL13; K17((2-[2-(2-Amino-ethoxy)-ethoxy]-acetyl)2-(γ-Glu)-CO-(CH2)18-CO2H); Aib20; C-terminal NH2
- Ki (human GIP receptor): 0.0424 nM
- Ki (human glucagon receptor): 41.5 nM
- Ki (human GLP-1 receptor): 4.87 nM

B10: Example 122 (peptide)
peptide: Y[Aib]EGT[αMeF]TSDYSI[αMeL]LDEK([AEEA-AEEA-γGlu-C20 diacid])AQQAFIEYLIE[Aib]GPSSGAPPPS-NH2
modifications: N-terminus assumed
SMILES: CC[C@H](C)[C@H](NC(=O)[C@H](Cc1ccccc1)NC(=O)[C@H](C)NC(=O)[C@H](CCC(N)=O)NC(=O)[C@H](CCC(N)=O)NC(=O)[C@H](C)NC(=O)[C@H](CCCCNC(=O)COCCOCCNC(=O)COCCOCCNC(=O)CC[C@H](NC(=O)CCCCCCCCCCCCCCCCCCC(=O)O)C(=O)O)NC(=O)[C@H](CCC(=O)O)NC(=O)[C@H](CC(=O)O)NC(=O)[C@H](CC(C)C)NC(=O)[C@](C)(CC(C)C)NC(=O)[C@@H](NC(=O)[C@H](CO)NC(=O)[C@H](Cc1ccc(O)cc1)NC(=O)[C@H](CC(=O)O)NC(=O)[C@H](CO)NC(=O)[C@@H](NC(=O)[C@](C)(Cc1ccccc1)NC(=O)[C@@H](NC(=O)CNC(=O)[C@H](CCC(=O)O)NC(=O)C(C)(C)NC(=O)[C@@H](N)Cc1ccc(O)cc1)[C@@H](C)O)[C@@H](C)O)[C@@H](C)CC)C(=O)N[C@@H](CCC(=O)O)C(=O)N[C@@H](Cc1ccc(O)cc1)C(=O)N[C@@H](CC(C)C)C(=O)N[C@H](C(=O)N[C@@H](CCC(=O)O)C(=O)NC(C)(C)C(=O)NCC(=O)N1CCC[C@H]1C(=O)N[C@@H](CO)C(=O)N[C@@H](CO)C(=O)NCC(=O)N[C@@H](C)C(=O)N1CCC[C@H]1C(=O)N1CCC[C@H]1C(=O)N1CCC[C@H]1C(=O)N[C@@H](CO)C(N)=O)[C@@H](C)CC
- Ki (human GIP receptor): 0.19 nM
- Ki (human glucagon receptor): 43.3 nM
- Ki (human GLP-1 receptor): 3.36 nM

B11: Example 120 (peptide)
peptide: Y[Aib][cTA]GT[αMeF]TSDYSI[αMeL]LDEK([AEEA-AEEA-γGlu-C20 diacid])AQ[Aib]AFIEYLIEGGPSSGAPPPS-NH2
modifications: reading uncertain
- Ki (human GIP receptor): 0.11 nM
- Ki (human glucagon receptor): 93.6 nM
- Ki (human GLP-1 receptor): 11.7 nM

B12: Example 133 (peptide)
peptide: [Desaminotyrosyl][Aib]EGT[αMeF]TSDYSI[Aib]LDEK([AEEA-AEEA-γGlu-C20 diacid])AQ[Aib]AFIEYLIEGGPSSGAPPPS-NH2
SMILES: CC[C@H](C)[C@H](NC(=O)[C@H](CC(C)C)NC(=O)[C@H](Cc1ccc(O)cc1)NC(=O)[C@H](CCC(=O)O)NC(=O)[C@@H](NC(=O)[C@H](Cc1ccccc1)NC(=O)[C@H](C)NC(=O)C(C)(C)NC(=O)[C@H](CCC(N)=O)NC(=O)[C@H](C)NC(=O)[C@H](CCCCNC(=O)COCCOCCNC(=O)COCCOCCNC(=O)CC[C@H](NC(=O)CCCCCCCCCCCCCCCCCCC(=O)O)C(=O)O)NC(=O)[C@H](CCC(=O)O)NC(=O)[C@H](CC(=O)O)NC(=O)[C@H](CC(C)C)NC(=O)C(C)(C)NC(=O)[C@@H](NC(=O)[C@H](CO)NC(=O)[C@H](Cc1ccc(O)cc1)NC(=O)[C@H](CC(=O)O)NC(=O)[C@H](CO)NC(=O)[C@@H](NC(=O)[C@](C)(Cc1ccccc1)NC(=O)[C@@H](NC(=O)CNC(=O)[C@H](CCC(=O)O)NC(=O)C(C)(C)NC(=O)CCc1ccc(O)cc1)[C@@H](C)O)[C@@H](C)O)[C@@H](C)CC)[C@@H](C)CC)C(=O)N[C@@H](CCC(=O)O)C(=O)NCC(=O)NCC(=O)N1CCC[C@H]1C(=O)N[C@@H](CO)C(=O)N[C@@H](CO)C(=O)NCC(=O)N[C@@H](C)C(=O)N1CCC[C@H]1C(=O)N1CCC[C@H]1C(=O)N1CCC[C@H]1C(=O)N[C@@H](CO)C(N)=O
- Ki (human GIP receptor): 0.157 nM
- Ki (human glucagon receptor): 216 nM
- Ki (human GLP-1 receptor): 11.4 nM
